# Patent US20050032194
# B1: Sap (S-layer associated protease), native Caulobacter crescentus metalloprotease (protein)
# chain: MCSQCERYGLNLHGDDVAPAVSGGEGPYAFVDADSRVGTVDGKKSLTVPEAALQLLRSEPGWSNQFLVPATVTYAFRATAPASMPSDTGGFSQFNAAQILQAEKALQAWSDVANITFVRVGQGTSGEAAYSDNASILFANFSTGSEGSAGFAYYPGNPAASSRSGDVWIKSTAGYNTNPTGSNYGGMVLVHELGHAIGIAHPSEYNASADDTLTYAVNATYYQDSRQYTVMSYFSEANTGGSFGGAYASSPLLDDIAAAQLAYGANMTTRTGDTVYGFNSTAGREWFAATSSSTRLVFAVWDAGGVDTLDFSGYRVAQTIDLRAGYFSSVGGLKGNVTIAMNAVIENAIGGSAADTINGNAVDNRLTGGAGADILDGGRGVDTAVFSGAYGNYTLTAATNGAWSVLDRVGTDATDTLANIEFLAFTDRTVTLVDSRVATAISNILRLQTFSASAEPLSKSLAASMAAGASHSDAIGQVSKTALSTSGVAVLAYQFFTGKTPTAAGMDYLVNPDGVNANNLNSAYYQSFNLENRYINFAVNLGKIGEGATKFLADYGGLSLFDATRKAYATIFGLTPTDDKVRALIDGRTDYFAAYGQDGPNGQGTKAAMVGWLMAEAGKADIGVYAKSAGAFFADQATKNVYGVDLIGVYAKPEYNLI
# How the values were obtained:
# [1] = target: T1, RsaA(485/IHNVG20), full-length RsaA hybrid protein carrying the 20 amino acid IHNV-G peptide at amino acid 485
# T1 chain: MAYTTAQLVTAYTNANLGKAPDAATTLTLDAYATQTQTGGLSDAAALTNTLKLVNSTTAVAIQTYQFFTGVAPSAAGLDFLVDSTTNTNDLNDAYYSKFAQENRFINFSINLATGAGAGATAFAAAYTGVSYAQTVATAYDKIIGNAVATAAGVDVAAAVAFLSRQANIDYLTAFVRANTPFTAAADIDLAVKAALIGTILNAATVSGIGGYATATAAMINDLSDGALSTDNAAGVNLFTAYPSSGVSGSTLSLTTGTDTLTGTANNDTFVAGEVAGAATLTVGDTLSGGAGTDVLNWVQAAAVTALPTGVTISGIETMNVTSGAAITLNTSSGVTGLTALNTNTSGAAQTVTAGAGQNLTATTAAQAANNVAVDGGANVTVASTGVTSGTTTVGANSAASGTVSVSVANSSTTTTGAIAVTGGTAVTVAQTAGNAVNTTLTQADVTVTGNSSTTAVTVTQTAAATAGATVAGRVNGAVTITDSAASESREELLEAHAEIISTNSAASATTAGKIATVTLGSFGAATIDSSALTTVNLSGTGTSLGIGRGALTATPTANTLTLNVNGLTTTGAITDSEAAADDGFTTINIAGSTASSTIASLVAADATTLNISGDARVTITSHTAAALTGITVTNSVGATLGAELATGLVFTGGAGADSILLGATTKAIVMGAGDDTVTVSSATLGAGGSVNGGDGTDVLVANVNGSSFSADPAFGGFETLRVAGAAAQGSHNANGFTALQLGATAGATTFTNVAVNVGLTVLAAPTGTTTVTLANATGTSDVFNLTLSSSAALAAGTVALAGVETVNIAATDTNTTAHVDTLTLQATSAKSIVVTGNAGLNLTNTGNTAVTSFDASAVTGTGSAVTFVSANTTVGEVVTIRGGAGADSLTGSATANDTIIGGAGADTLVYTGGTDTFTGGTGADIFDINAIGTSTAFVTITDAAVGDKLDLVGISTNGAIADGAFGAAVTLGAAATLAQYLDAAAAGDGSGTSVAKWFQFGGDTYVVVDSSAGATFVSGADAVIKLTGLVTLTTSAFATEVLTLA
# [2] = target: RsaA(723/3XPilin12), RsaA with a 3X tandemly repeated P. aeruginosa pilin epitope inserted at amino acid 723
# [3] = target: RsaA(723/VP2C), RsaA with a 112 amino acid segment of the VP2 surface glycoprotein of infectious pancreatic necrosis virus inserted at amino acid 723
# [4] = target: T2, RsaA, wild-type S-layer protein monomer of C. crescentus
# T2 chain: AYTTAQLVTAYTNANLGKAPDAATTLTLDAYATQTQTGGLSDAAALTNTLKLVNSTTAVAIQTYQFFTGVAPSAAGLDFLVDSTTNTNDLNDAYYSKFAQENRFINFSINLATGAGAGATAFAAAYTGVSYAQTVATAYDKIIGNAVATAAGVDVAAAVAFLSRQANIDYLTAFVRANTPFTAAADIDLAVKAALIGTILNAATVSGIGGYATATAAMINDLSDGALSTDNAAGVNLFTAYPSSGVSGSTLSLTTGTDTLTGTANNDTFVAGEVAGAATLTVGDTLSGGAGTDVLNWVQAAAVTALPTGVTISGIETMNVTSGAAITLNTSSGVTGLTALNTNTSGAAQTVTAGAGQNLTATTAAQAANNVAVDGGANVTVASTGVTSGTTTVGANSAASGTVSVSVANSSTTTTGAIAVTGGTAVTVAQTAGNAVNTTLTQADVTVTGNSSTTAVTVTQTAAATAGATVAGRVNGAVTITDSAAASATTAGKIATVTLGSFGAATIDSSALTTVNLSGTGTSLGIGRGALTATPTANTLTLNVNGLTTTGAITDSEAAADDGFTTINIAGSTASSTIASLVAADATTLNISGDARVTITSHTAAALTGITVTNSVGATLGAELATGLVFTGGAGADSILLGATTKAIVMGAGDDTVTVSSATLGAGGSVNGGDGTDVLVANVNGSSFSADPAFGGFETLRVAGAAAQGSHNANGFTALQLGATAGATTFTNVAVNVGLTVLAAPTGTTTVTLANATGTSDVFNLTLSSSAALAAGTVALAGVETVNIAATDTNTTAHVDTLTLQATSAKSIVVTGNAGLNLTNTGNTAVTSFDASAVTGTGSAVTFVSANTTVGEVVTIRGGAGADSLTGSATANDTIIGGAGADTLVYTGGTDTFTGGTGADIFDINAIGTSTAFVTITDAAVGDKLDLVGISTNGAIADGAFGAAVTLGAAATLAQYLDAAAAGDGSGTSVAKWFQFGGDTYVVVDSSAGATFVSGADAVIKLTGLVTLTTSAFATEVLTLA
protein,measurement,setting,value
B1,"proteolytic phenotype (cleavage of the hybrid protein; SDS-PAGE of low-pH extracts, complementation of Sap- JS4015 with the sap gene)",[1],"When pBBR1MCS:Kmsap was introduced into JS4015, the proteolytic phenotype was restored"
same,degradation of the hybrid protein in Sap+ JS4000 against Sap- JS4015 (SDS-PAGE of low-pH extracts),[2],In all instances significant degradation of the hybrid full-length rsaA protein occurred in a wild-type host (JS4000) while none was detected in the Sap^- JS4015 strain
same,degradation of the hybrid protein in Sap+ JS4000 against Sap- JS4015 (SDS-PAGE of low-pH extracts),[3],In all instances significant degradation of the hybrid full-length rsaA protein occurred in a wild-type host (JS4000) while none was detected in the Sap^- JS4015 strain
same,proteolytic cleavage (SDS-PAGE of low-pH extracts from Sap+ JS4000),[4],Native RsaA (98 kDa) was not subjected to cleavage
